Article PMC12398788, “Molecular basis of the autoregulatory mechanism of motor neuron-related splicing factor 30”
Substitutions are numbered along the chain they refer to.

How the values were obtained:
SPF30 FSV3A = molecular target: T1, SPF30 FSV3A (human, UniProt O75940 1-238, F199A;S201A;V209A); experiment: EMSA; 200 or 400 ng protein; distinct mobility from WT; EMSA: 40 mM Tris-HCl pH 7.4, 30 mM KCl, 1 mM MgCl2, 0.01% IGEPAL CA-630, 25 °C 30 min, 20 fmol RNA in 12 µl; UV cross-linking: 50 mM Tris-HCl pH 7.4, 150 mM NaCl, 0.5% IGEPAL CA-630, 4 °C 4 h; settings: protein: recombinant; tags: N-terminal 6xHis; label: biotin; stem-loop predicted at intron 3/exon 4a/exon 4
T1 sequence: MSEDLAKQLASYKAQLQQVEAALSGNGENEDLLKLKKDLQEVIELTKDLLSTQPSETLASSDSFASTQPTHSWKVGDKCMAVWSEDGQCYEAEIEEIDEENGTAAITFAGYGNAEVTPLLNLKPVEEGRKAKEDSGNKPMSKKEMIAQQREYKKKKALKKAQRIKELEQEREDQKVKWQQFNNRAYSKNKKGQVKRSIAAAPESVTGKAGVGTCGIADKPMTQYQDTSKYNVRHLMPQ

SPF30 197-217 peptide = molecular target: T2, SPF30 197-217 peptide (human, UniProt O75940 197-217); experiment: EMSA; EMSA: 40 mM Tris-HCl pH 7.4, 30 mM KCl, 1 mM MgCl2, 0.01% IGEPAL CA-630, 25 °C 30 min, 20 fmol RNA in 12 µl; UV cross-linking: 50 mM Tris-HCl pH 7.4, 150 mM NaCl, 0.5% IGEPAL CA-630, 4 °C 4 h; settings: label: biotin; stem-loop predicted at intron 3/exon 4a/exon 4
T2 chain: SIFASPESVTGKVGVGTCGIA

SPF30 ΔC1 = molecular target: T3, SPF30 ΔC1 (human, UniProt O75940 1-164); experiment: EMSA; 200 or 400 ng protein; EMSA: 40 mM Tris-HCl pH 7.4, 30 mM KCl, 1 mM MgCl2, 0.01% IGEPAL CA-630, 25 °C 30 min, 20 fmol RNA in 12 µl; UV cross-linking: 50 mM Tris-HCl pH 7.4, 150 mM NaCl, 0.5% IGEPAL CA-630, 4 °C 4 h; settings: protein: recombinant; tags: N-terminal 6xHis; label: biotin; stem-loop predicted at intron 3/exon 4a/exon 4
T3 sequence: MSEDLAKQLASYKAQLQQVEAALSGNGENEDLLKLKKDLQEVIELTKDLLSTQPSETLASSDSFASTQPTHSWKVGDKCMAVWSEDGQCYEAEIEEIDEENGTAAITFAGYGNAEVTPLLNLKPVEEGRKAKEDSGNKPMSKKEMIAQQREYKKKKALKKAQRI

SPF30 ΔC5 = molecular target: T4, SPF30 ΔC5 (human, UniProt O75940 1-217); experiment: as above; settings: protein: recombinant; tags: N-terminal 6xHis; label: biotin; stem-loop predicted at intron 3/exon 4a/exon 4
T4 sequence: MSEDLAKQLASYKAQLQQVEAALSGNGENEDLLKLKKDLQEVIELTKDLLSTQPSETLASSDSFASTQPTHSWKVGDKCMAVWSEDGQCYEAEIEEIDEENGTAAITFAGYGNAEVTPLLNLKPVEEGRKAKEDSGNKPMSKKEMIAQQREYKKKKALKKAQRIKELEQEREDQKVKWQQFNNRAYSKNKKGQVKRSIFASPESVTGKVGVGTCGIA

6xHis-SPF30 WT = molecular target: T5, 6xHis-SPF30 WT (human, UniProt O75940 1-238); experiment: as above; settings: protein: recombinant; tags: N-terminal 6xHis (pCold I); C-terminal FLAG from primer KI-125; label: biotin; stem-loop predicted at intron 3/exon 4a/exon 4
T5 sequence: T1 sequence with A199F, A201S, A209V

CUGCUUACAGCCAUGAUAUCUUUACAGGUGUUAUGAAGCGG (ssRNA) [BT-RNA WT]
binding result (SPF30 FSV3A): binds | binding result (SPF30 197-217 peptide): no binding | binding result (SPF30 ΔC1): no binding | binding result (SPF30 ΔC5): binds | binding result (6xHis-SPF30 WT): binds
